This assay concerns the target HLA-A*02:01 (Homo sapiens, UniProt P04439, D140Y/D185E/D98H/E176V/E277Q/G131W/G231S/I119V/I121R/I166T/I218V/L300P/L318F/N151K/N90K/P208A/P217A/Q86G/Q94H/R138H/R169H/T345S). Kind of assay: MHC binding assay (UV-ligand exchange, β2m ELISA, peptide exchange yield). The following applies: MHC class I binding score; binding to HLA-A*02:01 ranged by peptide exchange yield (UV-ligand exchange, β2m ELISA). The method in brief:
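Binding is expressed as peptide exchange yield: stabilized MHC complexes were quantified by β2m ELISA, with a 450 nm TMB read-out on streptavidin-coated plates. Complexes came from UV-ligand exchange, where UV irradiation cleaves a photolabile peptide so the candidate peptide can load.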
In general terms: ELISA stands for enzyme-linked immunosorbent assay.
On to “359 (YLLPESVDL; listed as Homo sapiens) [compound 359]”, for which the Peptide exchange entry was “″+++″ (≧50% = +++)”.
Next, “361 (ALYELEGTTV; listed as Homo sapiens) [compound 361]”: “″+++″ (≧50% = +++)”; “362 (TLYGLSVLL; listed as Homo sapiens) [compound 362]”: “″+++″ (≧50% = +++)”.
The value for “363 (KVLDVSDLESV; listed as Homo sapiens) [compound 363]” was “″++″ (≧20% = ++)”; that for “364 (LLQNEQFEL; listed as Homo sapiens) [compound 364]” was “″+++″ (≧50% = +++)”; that for “365 (YVIDQGETDVYV; listed as Homo sapiens) [compound 365]” was “″+++″ (≧50% = +++)”.
With “366 (RLLDMGETDLML; listed as Homo sapiens) [compound 366]”, the Peptide exchange result is “″+++″ (≧50% = +++)”.
Next, “367 (SLQNHNHQL; listed as Homo sapiens) [compound 367]”: “″+++″ (≧50% = +++)”.
Next, “369 (GLFPEHLIDV; listed as Homo sapiens) [compound 369]”: “″+++″ (≧50% = +++)”.
For “370 (SLLQDLVSV; listed as Homo sapiens) [compound 370]”, the Peptide exchange entry was “″+++″ (≧50% = +++)”.
Next, “371 (FLQAHLHTA; listed as Homo sapiens) [compound 371]”: “″++++″ (≧75% = ++++)”; “372 (TMLLNIPLV; listed as Homo sapiens) [compound 372]”: “″++″ (≧20% = ++)”.
As to “373 (SLLEDKGLAEV; listed as Homo sapiens) [compound 373]”, the Peptide exchange entry is reported as “″++″ (≧20% = ++)”.
The value for “374 (FLLQQHLISA; listed as Homo sapiens) [compound 374]” was “″++″ (≧20% = ++)”.
As for “375 (SLTETIEGV; listed as Homo sapiens) [compound 375]”, the Peptide exchange result is reported as “″++″ (≧20% = ++)”.
The value for “376 (AMFESSQNVLL; listed as Homo sapiens) [compound 376]” was “″++″ (≧20% = ++)”; that for “377 (FLLDSSASV; listed as Homo sapiens) [compound 377]” was “″++″ (≧20% = ++)”.
“378 (ALGYFVPYV; listed as Homo sapiens) [compound 378]”: the Peptide exchange result is recorded as “″+++″ (≧50% = +++)”.
The value for “379 (IMEGTLTRV; listed as Homo sapiens) [compound 379]” was “″++″ (≧20% = ++)”.
Take “380 (TLIEDEIATI; listed as Homo sapiens) [compound 380]”: the Peptide exchange result is listed as “″++″ (≧20% = ++)”.
The value for “381 (FIDEAYVEV; listed as Homo sapiens) [compound 381]” was “″++″ (≧20% = ++)”; that for “382 (ALQNYIKEA; listed as Homo sapiens) [compound 382]” was “″++″ (≧20% = ++)”.
The value for “383 (ALLELENSVTL; listed as Homo sapiens) [compound 383]” was “″+++″ (≧50% = +++)”.
The value for “385 (SLLEQGLVEA; listed as Homo sapiens) [compound 385]” was “″++″ (≧20% = ++)”.
On to “386 (ILFRYPLTI; listed as Homo sapiens) [compound 386]”, for which the Peptide exchange entry is on record as “″+++″ (≧50% = +++)”.
Next, “387 (ALFQATAEV; listed as Homo sapiens) [compound 387]”: “″++++″ (≧75% = ++++)”; “388 (SLTIDGIRYV; listed as Homo sapiens) [compound 388]”: “″+++″ (≧50% = +++)”; “389 (LLADVTHLL; listed as Homo sapiens) [compound 389]”: “″++″ (≧20% = ++)”.
For the substance “390 (ALFMKQIYL; listed as Homo sapiens) [compound 390]”, the Peptide exchange result is “″+++″ (≧50% = +++)”.
Next, “391 (YVYPQRLNFV; listed as Homo sapiens) [compound 391]”: “″+++″ (≧50% = +++)”; “392 (ALLHPQGFEV; listed as Homo sapiens) [compound 392]”: “″++″ (≧20% = ++)”.
Next, “393 (GLLDTQTSQVLTA; listed as Homo sapiens) [compound 393]”: “″++″ (≧20% = ++)”; “394 (LLAVIGGLVYL; listed as Homo sapiens) [compound 394]”: “″+++″ (≧50% = +++)”; “396 (ALLPDLPAL; listed as Homo sapiens) [compound 396]”: “″+++″ (≧50% = +++)”.
Consider “397 (YLFGERLLEC; listed as Homo sapiens) [compound 397]”, for which the Peptide exchange result is listed as “″+++″ (≧50% = +++)”.
Next, “398 (KLLEEDGTIITL; listed as Homo sapiens) [compound 398]”: “″++″ (≧20% = ++)”.
The value for “399 (YLFEPLYHV; listed as Homo sapiens) [compound 399]” was “″+++″ (≧50% = +++)”.
Next, “400 (SLLTEQDLWTV; listed as Homo sapiens) [compound 400]”: “″++″ (≧20% = ++)”; “401 (ILLDDTGLAYI; listed as Homo sapiens) [compound 401]”: “″+++″ (≧50% = +++)”; “402 (VLFSGALLGL; listed as Homo sapiens) [compound 402]”: “″++″ (≧20% = ++)”.
Regarding “403 (KLYDRILRV; listed as Homo sapiens) [compound 403]”, the Peptide exchange entry is reported as “″++″ (≧20% = ++)”.
Next, “405 (ALYDVFLEV; listed as Homo sapiens) [compound 405]”: “″++″ (≧20% = ++)”; “407 (YLMDLINFL; listed as Homo sapiens) [compound 407]”: “″+++″ (≧50% = +++)”; “408 (VLDDSIYLV; listed as Homo sapiens) [compound 408]”: “″++″ (≧20% = ++)”.
Next, “409 (LLDAMNYHL; listed as Homo sapiens) [compound 409]”: “″++″ (≧20% = ++)”; “412 (YLDDLNEGVYI; listed as Homo sapiens) [compound 412]”: “″++″ (≧20% = ++)”.
As to “426 (RLADKSVLV; listed as Homo sapiens) [compound 426]”, the Peptide exchange entry is “″+++″ (≧50% = +++)”.
The value for “427 (ALLPLSPYL; listed as Homo sapiens) [compound 427]” was “″+++″ (≧50% = +++)”.
The value for “428 (KLGHTDILVGV; listed as Homo sapiens) [compound 428]” was “″++″ (≧20% = ++)”; that for “429 (GLVNDLARV; listed as Homo sapiens) [compound 429]” was “″++″ (≧20% = ++)”.
The value for “430 (HLYSSIEHLTT; listed as Homo sapiens) [compound 430]” was “″+++″ (≧50% = +++)”.
Take “431 (SLVNVVPKL; listed as Homo sapiens) [compound 431]”: the Peptide exchange result is listed as “″++″ (≧20% = ++)”.
The value for “432 (TLIEESAKV; listed as Homo sapiens) [compound 432]” was “″++″ (≧20% = ++)”.
Turning to “433 (AMLNEPWAV; listed as Homo sapiens) [compound 433]”, the Peptide exchange entry is given as “″+++″ (≧50% = +++)”.
Next, “434 (KVSNSGITRV; listed as Homo sapiens) [compound 434]”: “″++″ (≧20% = ++)”.
As for “436 (HLAEVSAEV; listed as Homo sapiens) [compound 436]”, the Peptide exchange entry is listed as “″+++″ (≧50% = +++)”.
In the case of “437 (SMAPGLVIQAV; listed as Homo sapiens) [compound 437]”, the Peptide exchange entry is “″+++″ (≧50% = +++)”.
Next, “438 (KLLPLAGLYL; listed as Homo sapiens) [compound 438]”: “″++++″ (≧75% = ++++)”; “439 (YLLQEIYGI; listed as Homo sapiens) [compound 439]”: “″+++″ (≧50% = +++)”; “440 (ALADGVTMQV; listed as Homo sapiens) [compound 440]”: “″++″ (≧20% = ++)”.
The value for “441 (ALLENPKMEL; listed as Homo sapiens) [compound 441]” was “″+++″ (≧50% = +++)”.
Next, “442 (GLLGGGGVLGV; listed as Homo sapiens) [compound 442]”: “″+++″ (≧50% = +++)”; “444 (GLLRDEALAEV; listed as Homo sapiens) [compound 444]”: “″+++″ (≧50% = +++)”; “447 (QLVPALAKV; listed as Homo sapiens) [compound 447]”: “″++″ (≧20% = ++)”.
In the case of “448 (NLLETKLQL; listed as Homo sapiens) [compound 448]”, the Peptide exchange entry is given as “″+++″ (≧50% = +++)”.
The value for “449 (KLAEGLDIQL; listed as Homo sapiens) [compound 449]” was “″+++″ (≧50% = +++)”; that for “450 (FMIDASVHPTL; listed as Homo sapiens) [compound 450]” was “″+++″ (≧50% = +++)”; that for “451 (LLLLDTVTMQV; listed as Homo sapiens) [compound 451]” was “″++″ (≧20% = ++)”.
The value for “452 (ILLEHGADPNL; listed as Homo sapiens) [compound 452]” was “″+++″ (≧50% = +++)”.
Next, “453 (KLLEATSAV; listed as Homo sapiens) [compound 453]”: “″++″ (≧20% = ++)”.
